How the values were obtained:
[1] = molecular target: TSHR260-AP (fusion protein consisting of a fragment of human TSHR, amino acids 22-260, with alkaline phosphatase) (human); assay: bridging ELISA: full length TSHR on wells, TSHR260-AP in liquid phase; IgG 0.5 µg/mL in HBD serum
[2] = molecular target: TSHR260-AP (fusion protein consisting of a fragment of human TSHR, amino acids 22-260, with alkaline phosphatase) (human); assay: bridging ELISA: full length TSHR on wells, TSHR260-AP in liquid phase; IgG 0.01 µg/mL in HBD serum
[3] = molecular target: TSHR260-AP (fusion protein consisting of a fragment of human TSHR, amino acids 22-260, with alkaline phosphatase) (human); assay: bridging ELISA: full length TSHR on wells, TSHR260-AP in liquid phase; IgG 0.05 µg/mL in HBD serum
[4] = molecular target: TSHR260-AP (fusion protein consisting of a fragment of human TSHR, amino acids 22-260, with alkaline phosphatase) (human); assay: bridging ELISA: full length TSHR on wells, TSHR260-AP in liquid phase; IgG 0.005 µg/mL in HBD serum
[5] = molecular target: TSHR260-AP (fusion protein consisting of a fragment of human TSHR, amino acids 22-260, with alkaline phosphatase) (human); assay: bridging ELISA: full length TSHR on wells, TSHR260-AP in liquid phase; IgG 10 µg/mL in HBD serum
[6] = molecular target: TSHR260-AP (fusion protein consisting of a fragment of human TSHR, amino acids 22-260, with alkaline phosphatase) (human); assay: bridging ELISA: full length TSHR on wells, TSHR260-AP in liquid phase; IgG 0.1 µg/mL in HBD serum
[7] = molecular target: TSHR260-AP (fusion protein consisting of a fragment of human TSHR, amino acids 22-260, with alkaline phosphatase) (human); assay: bridging ELISA: full length TSHR on wells, TSHR260-AP in liquid phase; IgG 1 µg/mL in HBD serum
[8] = molecular target: T1, thyroid stimulating hormone receptor (TSHR), full length human (human, UniProt P16473 22-764); assay: 125I-K1-18 Fab competition, TSHR coated tubes; 1 µg/mL in assay buffer
T1 construct: TSHR coated on plastic tubes; also called TSH receptor
Description: (§1) Binding inhibition assays were carried out using TSHR coated tubes as described in WO2004/050708A2. […] After aspiration, the tubes were washed and 100 μL of ¹²⁵I-labelled protein (5×10⁴ cpm) added and incubated for 1 hour at room temperature with shaking. The tubes were then aspirated, washed and counted in a gamma counter. Inhibition of labelled protein binding was calculated as 100×[1−(cpm bound in the presence of test material/cpm bound in the presence of control material)].

[9] = molecular target: T1, thyroid stimulating hormone receptor …; assay: 125I-K1-18 Fab competition, TSHR coated tubes; 10 µg/mL in assay buffer
Description: as §1

[10] = molecular target: T1, thyroid stimulating hormone receptor …; assay: 125I-K1-18 Fab competition, TSHR coated tubes; 3 µg/mL in HBD
Description: as §1

[11] = molecular target: T1, thyroid stimulating hormone receptor …; assay: 125I-K1-18 Fab competition, TSHR coated tubes; 30 µg/mL in HBD
Description: as §1

[12] = molecular target: T1, thyroid stimulating hormone receptor …; assay: 125I-K1-18 Fab competition, TSHR coated tubes; 30 µg/mL in assay buffer
Description: as §1

[13] = molecular target: T1, thyroid stimulating hormone receptor …; assay: 125I-K1-18 Fab competition, TSHR coated tubes; 10 µg/mL in HBD
Description: as §1

[14] = molecular target: T1, thyroid stimulating hormone receptor …; assay: 125I-K1-18 Fab competition, TSHR coated tubes; 0.1 µg/mL in assay buffer
Description: as §1

[15] = molecular target: T1, thyroid stimulating hormone receptor …; assay: 125I-K1-18 Fab competition, TSHR coated tubes; 1 µg/mL in HBD
Description: as §1

[16] = molecular target: T1, thyroid stimulating hormone receptor …; assay: 125I-K1-18 Fab competition, TSHR coated tubes; 100 µg/mL in assay buffer
Description: as §1

[17] = molecular target: T1, thyroid stimulating hormone receptor …; assay: 125I-K1-18 Fab competition, TSHR coated tubes; 3 µg/mL in assay buffer
Description: as §1

[18] = molecular target: T1, thyroid stimulating hormone receptor …; assay: 125I-K1-18 Fab competition, TSHR coated tubes; 100 µg/mL in HBD
Description: as §1

[19] = molecular target: T1, thyroid stimulating hormone receptor …; assay: 125I-K1-18 Fab competition, TSHR coated tubes; 0.1 µg/mL in HBD
Description: as §1

[20] = molecular target: T2, full length human TSHR, detergent-solubilised, coated on tubes or ELISA plate wells (human, UniProt P16473 22-764); assay: Scatchard analysis, 125I-labelled antibody on full length TSHR coated tubes (mean±SD, n=3)
T2 construct: Full length receptor expressed in CHO cells, solubilised with detergent and held on the plastic by a mouse MAb to the C-terminus; The leader 1-21 is stated for the TSHR260 construct of the same receptor; also called TSH receptor; TSHR (full length)

TSHR260 = molecular target: T3, TSHR260 (human, UniProt P16473 22-260); assay: Scatchard analysis, TSHR260 coated tubes (mean±SD, n=3)
T3 construct: Expressed in insect cells; coated on tubes or wells by way of a mouse TSHR MAb (14C4 F(ab')2 in the stability ELISA); also called TSHR fragment of amino acids 22-260

[21] = molecular target: T2, full length human TSHR, …; assay: Scatchard analysis, full length TSHR coated tubes (mean±SD, n=3)
[22] = molecular target: T4, human TSH receptor, full length, detergent-solubilised, coated on tubes or ELISA plate wells (human, UniProt P16473 22-764); assay: TSHR binding affinity (summary table; Scatchard analysis, TSHR coated tubes)
T4 construct: Full length recombinant receptor expressed in CHO cells, solubilised and coated via a C-terminal antibody; also called wild type TSHR; full length TSHR

| Inhibition of binding (%) [8] [%] | Inhibition of binding (%) [9] [%] | Inhibition of binding (%) [10] [%] | Inhibition of binding (%) [11] [%] | Inhibition of binding (%) [12] [%] | Inhibition of binding (%) [13] [%] | Inhibition of binding (%) [14] [%] | Inhibition of binding (%) [15] [%] | Inhibition of binding (%) [16] [%] | Inhibition of binding (%) [17] [%] | Inhibition of binding (%) [18] [%] | Inhibition of binding (%) [19] [%] | Molecule | further results |
| --- | --- | --- | --- | --- | --- | --- | --- | --- | --- | --- | --- | --- | --- |
| – | – | – | – | – | – | – | – | – | – | – | – | 9D33 IgG (mouse TSHR blocking MAb) (antibody) | Mean absorbance at 405 nm (absorbance at 405 nm) [1]: 0.273; Mean absorbance at 405 nm (absorbance at 405 nm) [2]: 0.011; Mean absorbance at 405 nm (absorbance at 405 nm) [3]: 0.056; Mean absorbance at 405 nm (absorbance at 405 nm) [4]: 0.006; Mean absorbance at 405 nm (absorbance at 405 nm) [5]: 0.481; Mean absorbance at 405 nm (absorbance at 405 nm) [6]: 0.102; Mean absorbance at 405 nm (absorbance at 405 nm) [7]: 0.329 |
| 94 | 94.6 | 95.3 | 95.5 | 95.1 | 95.8 | 73.8 | 94 | 94.8 | 94.5 | 95.6 | 60.1 | K1-70 IgG (antibody, V domains shown, Human IgG1 lambda purified from hetero-hybridoma supernatant; also called human monoclonal autoantibody K1-70) VH: EVQLVQSGAEVKKPGQSLKISCKASGYSLTDNWIGWVRQKPGKGLEWMGIIYPGDSDTRYSPSFQGQVTISADKSINTAYLQWSSLKASDTAIYYCVGLDWNYNPLRYWGPGTLVTVSS VL: QSVLTQPPSVSAAPGQKVTISCSGSSSDIGSNYVSWYQQFPGTAPKLLIYDNNKRPSAIPDRFSGSKSGTSATLGITGLQTGDEADYYCGTWDSRLGIAVFGGGTQLTVLG | – |
| – | – | – | – | – | – | – | – | – | – | – | – | K1-70 IgG (antibody, V domains shown, N-terminus blocked; deblocked with pyroglutamate aminopeptidase for Edman sequencing, Human IgG1 lambda purified from hetero-hybridoma supernatant; also called human MAb K1-70) VH: EVQLVQSGAEVKKPGQSLKISCKASGYSLTDNWIGWVRQKPGKGLEWMGIIYPGDSDTRYSPSFQGQVTISADKSINTAYLQWSSLKASDTAIYYCVGLDWNYNPLRYWGPGTLVTVSS VL: QSVLTQPPSVSAAPGQKVTISCSGSSSDIGSNYVSWYQQFPGTAPKLLIYDNNKRPSAIPDRFSGSKSGTSATLGITGLQTGDEADYYCGTWDSRLGIAVFGGGTQLTVLG | Ka [20]: 3.9e+10 M⁻¹; Ka (TSHR260): 3.1e+10 M⁻¹ |
| – | – | – | – | – | – | – | – | – | – | – | – | K1-70 Fab (Fab, V domains shown, N-terminus blocked; deblocked with pyroglutamate aminopeptidase for Edman sequencing) VH: EVQLVQSGAEVKKPGQSLKISCKASGYSLTDNWIGWVRQKPGKGLEWMGIIYPGDSDTRYSPSFQGQVTISADKSINTAYLQWSSLKASDTAIYYCVGLDWNYNPLRYWGPGTLVTVSS VL: QSVLTQPPSVSAAPGQKVTISCSGSSSDIGSNYVSWYQQFPGTAPKLLIYDNNKRPSAIPDRFSGSKSGTSATLGITGLQTGDEADYYCGTWDSRLGIAVFGGGTQLTVLG | Ka [21]: 2.3e+10 M⁻¹; Ka (TSHR260): 9.3e+09 M⁻¹ |
| 93.3 | 94.8 | 94 | 95.7 | 94.5 | 94.5 | 78.5 | 91.9 | 94.8 | 93.7 | 96 | 57 | K1-18 IgG (antibody, V domains shown, Human IgG1 kappa purified from hetero-hybridoma supernatant; also called human monoclonal autoantibody K1-18) VH: EVQLVQSGAEVKKPGESLKISCKGSGYSFTNYWIGWVRQMPGKGLEWMGIIYPYDSDTRYSPSFEGQVTISADKSIRTAYLHWSSLKASDTAMYYCVRPRDGSYPYDAFDIWGQGTMVTVSS VL: EIVLTQSPGTLSLSPGERATLSCRASQSVSNNYLAWYQQKPGQAPRLLIYGASSRATGIPDRFSGSGSGTDFTLTISRLEPEDFAVYYCQHCGSSLRAFGQGTKVEIKR | – |
| – | – | – | – | – | – | – | – | – | – | – | – | K1-18 IgG (human monoclonal TSHR autoantibody with stimulating activity) (antibody, V domains shown, IgG1 kappa purified from hetero-hybridoma supernatant; also called stimulating MAb K1-18 (IgG1 kappa)) VH: EVQLVQSGAEVKKPGESLKISCKGSGYSFTNYWIGWVRQMPGKGLEWMGIIYPYDSDTRYSPSFEGQVTISADKSIRTAYLHWSSLKASDTAMYYCVRPRDGSYPYDAFDIWGQGTMVTVSS VL: EIVLTQSPGTLSLSPGERATLSCRASQSVSNNYLAWYQQKPGQAPRLLIYGASSRATGIPDRFSGSGSGTDFTLTISRLEPEDFAVYYCQHCGSSLRAFGQGTKVEIKR | Ka [22]: 7e+09 M⁻¹ |
| – | – | – | – | – | – | – | – | – | – | – | – | K1-18 Fab (Fab, V domains shown) VH: EVQLVQSGAEVKKPGESLKISCKGSGYSFTNYWIGWVRQMPGKGLEWMGIIYPYDSDTRYSPSFEGQVTISADKSIRTAYLHWSSLKASDTAMYYCVRPRDGSYPYDAFDIWGQGTMVTVSS VL: EIVLTQSPGTLSLSPGERATLSCRASQSVSNNYLAWYQQKPGQAPRLLIYGASSRATGIPDRFSGSGSGTDFTLTISRLEPEDFAVYYCQHCGSSLRAFGQGTKVEIKR [K1-18 Fab, listing 1 of 2 here] | Ka [21]: 1.8e+09 M⁻¹ |
| 81.5 | 83.5 | 82.8 | 82.6 | 84.2 | 81.6 | 62.5 | 79.2 | 86.2 | 81.1 | 84.8 | 43.9 | K1-18 Fab (Fab, V domains shown) VH: EVQLVQSGAEVKKPGESLKISCKGSGYSFTNYWIGWVRQMPGKGLEWMGIIYPYDSDTRYSPSFEGQVTISADKSIRTAYLHWSSLKASDTAMYYCVRPRDGSYPYDAFDIWGQGTMVTVSS VL: EIVLTQSPGTLSLSPGERATLSCRASQSVSNNYLAWYQQKPGQAPRLLIYGASSRATGIPDRFSGSGSGTDFTLTISRLEPEDFAVYYCQHCGSSLRAFGQGTKVEIKR [K1-18 Fab, listing 2 of 2 here] | – |
| – | – | – | – | – | – | – | – | – | – | – | – | K1-18 Fab (Fab, V domains shown, also called Fab of K1-18) VH: EVQLVQSGAEVKKPGESLKISCKGSGYSFTNYWIGWVRQMPGKGLEWMGIIYPYDSDTRYSPSFEGQVTISADKSIRTAYLHWSSLKASDTAMYYCVRPRDGSYPYDAFDIWGQGTMVTVSS VL: EIVLTQSPGTLSLSPGERATLSCRASQSVSNNYLAWYQQKPGQAPRLLIYGASSRATGIPDRFSGSGSGTDFTLTISRLEPEDFAVYYCQHCGSSLRAFGQGTKVEIKR | Ka [22]: 1.3e+09 M⁻¹ |

From patent US20110300138A1 (published 2011)
